The target in one experiment is GST-IκBα (1–317) (UniProt P25963).
The target of experiment [1] is Full-length hIKKβ (1–756) (human) (UniProt O14920). Briefly: SEC.
In experiment [2] the target is WT IKKβ (hIKKβ, parent of the purified dimerization mutants of Figure 5c) (human) (UniProt O14920). As to the kind of experiment: AUC.
The target in experiment [3] is hIKKβ KD-ULD-SDD region (1–678) (human) (UniProt O14920). As to the kind of experiment: SEC. (SEC sorts molecules by how far they enter the pores of the column.)
For experiment [4], the target named is hIKKβ W655D/L658D, purified (human) (UniProt O14920). As to the kind of experiment: AUC.

From PMC3081413 come the findings set out here.

UniProt P25963, sequence (P25963 whole entry): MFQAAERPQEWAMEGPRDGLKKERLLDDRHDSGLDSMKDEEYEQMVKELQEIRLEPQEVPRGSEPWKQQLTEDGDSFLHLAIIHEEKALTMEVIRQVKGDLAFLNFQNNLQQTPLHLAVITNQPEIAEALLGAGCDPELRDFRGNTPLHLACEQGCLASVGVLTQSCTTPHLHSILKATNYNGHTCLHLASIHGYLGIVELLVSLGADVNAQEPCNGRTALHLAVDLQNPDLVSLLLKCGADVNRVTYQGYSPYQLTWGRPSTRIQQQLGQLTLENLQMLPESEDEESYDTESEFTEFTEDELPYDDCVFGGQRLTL

“Full-length hIKKβ (1–756) (from UniProt O14920 1-756) (enzyme)” returned a relative Vmax of phosphorylation of full-length IκBα by IKKβ EE with GST-IκBα (1–317) of 502 a.u. The same substance returned a stoichiometry N in experiment [1] of 2.
Turning to “WT IKKβ (hIKKβ, parent of the purified dimerization mutants of Figure 5c) (from UniProt O14920 1-756) (enzyme)”, the stoichiometry N in experiment [2] amounted to 2.
In turn, “hIKKβ KD-ULD-SDD region (1–678) (from UniProt O14920 1-678) (domain or fragment)” came in with a stoichiometry N in experiment [3] of 2.
With “hIKKβ W655D/L658D, purified (from UniProt O14920 1-756) (enzyme)”, in experiment [4], the fold weaker dimerization affinity than WT was 167 fold.

Usually stoichiometry N stands for the number of molecules, sites or subunits per partner or assembly.
